Publication PMC9557913 (Molecular cell, 2022)

T1: MCU, Q8NE86
T1 chain: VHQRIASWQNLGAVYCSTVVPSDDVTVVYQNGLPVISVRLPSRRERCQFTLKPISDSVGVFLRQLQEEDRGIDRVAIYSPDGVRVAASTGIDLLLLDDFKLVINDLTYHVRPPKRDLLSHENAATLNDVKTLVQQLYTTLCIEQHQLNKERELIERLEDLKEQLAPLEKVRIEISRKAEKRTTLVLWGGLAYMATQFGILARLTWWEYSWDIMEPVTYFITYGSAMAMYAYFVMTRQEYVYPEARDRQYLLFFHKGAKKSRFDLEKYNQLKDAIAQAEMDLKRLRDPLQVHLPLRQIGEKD


Experiments:
[1] = target: T1, MCU, Q8NE86; test: co-IP; conditions: remark: other sources report otherwise
[2] = target: the molecule itself; test: SEC

Binder | fold co-precipitated with MCU, against MICU1-2D [1] [fold] | stoichiometry N [2]
disulfide-connected MICU1-MICU1 homodimer (MICU1-1D), Q9BPX6 34-476 (complex, here or on the partner: intersubunit disulfide through C463) MMVAFLGASAVTASTGLLWKRAHAESPPCVDNLKSDIGDKGKNKDEGDVCNHEKKTADLAPHPEEKKKKRSGFRDRKVMEYENRIRAYSTPDKIFRYFATLKVISEPGEAEVFMTPEDFVRSITPNEKQPEHLGLDQYIIKRFDGKKISQEREKFADEGSIFYTLGECGLISFSDYIFLTTVLSTPQRNFEIAFKMFDLNGDGEVDMEEFEQVQSIIRSQTSMGMRHRDRPTTGNTLKSGLCSALTTYFFGADLKGKLTIKNFLEFQRKLQHDVLKLEFERHDPVDGRITERQFGGMLLAYSGVQSKKLTAMQRQLKKHFKEGKGLTFQEVENFFTFLKNINDVDTALSFYHMAGASLDKVTMQQVARTVAKVELSDHVCDVVFALFDCDGNGELSNKEFVSIMKQRLMRGLEKPKDMGFTRLMQAMWKCAQETAWDFALPKQ | 2 | 
purified MBP-fused human MICU1 (MICU1-1ND) (natural protein, UniProt Q9BPX6 34-476, looked up) MMVAFLGASAVTASTGLLWKRAHAESPPCVDNLKSDIGDKGKNKDEGDVCNHEKKTADLAPHPEEKKKKRSGFRDRKVMEYENRIRAYSTPDKIFRYFATLKVISEPGEAEVFMTPEDFVRSITPNEKQPEHLGLDQYIIKRFDGKKISQEREKFADEGSIFYTLGECGLISFSDYIFLTTVLSTPQRNFEIAFKMFDLNGDGEVDMEEFEQVQSIIRSQTSMGMRHRDRPTTGNTLKSGLCSALTTYFFGADLKGKLTIKNFLEFQRKLQHDVLKLEFERHDPVDGRITERQFGGMLLAYSGVQSKKLTAMQRQLKKHFKEGKGLTFQEVENFFTFLKNINDVDTALSFYHMAGASLDKVTMQQVARTVAKVELSDHVCDVVFALFDCDGNGELSNKEFVSIMKQRLMRGLEKPKDMGFTRLMQAMWKCAQETAWDFALPKQ |  | 2
purified human MICU2 (MICU2-2ND) (natural protein, UniProt Q8IYU8 23-434, looked up) AVSRQAVRSPGPLAAAVAGAALAGAGAAWHHSRVSVAARDGSFTVSAQKNVEHGIIYIGKPSLRKQRFMQFSSLEHEGEYYMTPRDFLFSVMFEQMERKTSVKKLTKKDIEDTLSGIQTAGCGSTFFRDLGDKGLISYTEYLFLLTILTKPHSGFHVAFKMLDTDGNEMIEKREFFKLQKIISKQDDLMTVKTNETGYQEAIVKEPEINTTLQMRFFGKRGQRKLHYKEFRRFMENLQTEIQEMEFLQFSKGLSFMRKEDFAEWLLFFTNTENKDIYWKNVREKLSAGESISLDEFKSFCHFTTHLEDFAIAMQMFSLAHRPVRLAEFKRAVKVATGQELSNNILDTVFKIFDLDGDECLSHEEFLGVLKNRMHRGLWVPQHQSIQEYWKCVKKESIKGVKEVWKQAGKGLF |  | 2
